Source: article PMC7725843, “Structural and biochemical analyses of an aminoglycoside 2′-N-acetyltransferase from Mycolicibacterium smegmatis” (Scientific Reports, 2020)

How the values were obtained:
Assay in all cases: purified protein
Assay type in all cases: biochemical, Mycolicibacterium smegmatis
[1] = test system: CC(=O)SCCNC(=O)CCNC(=O)[C@H](O)C(C)(C)COP(=O)(O)OP(=O)(O)OC[C@H]1O[C@@H](n2cnc3c(N)ncnc32)[C@H](O)[C@@H]1OP(=O)(O)O; conditions: aminoglycoside co-substrate not told, 50 mM MES pH 6.5, 200 μM DTNB, 25 °C
[2] = test system: NC[C@@H]1O[C@H](O[C@H]2[C@@H](O)[C@H](O[C@@H]3[C@@H](O)[C@H](N)C[C@H](N)[C@H]3O[C@H]3O[C@H](CO)[C@@H](O)[C@H](O)[C@H]3N)O[C@@H]2CO)[C@H](N)[C@@H](O)[C@@H]1O; conditions: 300 μM acetyl-CoA, 50 mM MES pH 6.5, 200 μM DTNB, 25 °C
[3] = test system: NC[C@H]1O[C@H](O[C@H]2[C@H](O)[C@@H](O[C@H]3O[C@H](CO)[C@@H](O)[C@H](N)[C@H]3O)[C@H](N)C[C@@H]2N)[C@H](N)C[C@@H]1O; conditions: 300 μM acetyl-CoA, 50 mM MES pH 6.5, 200 μM DTNB, 25 °C
[4] = test system: NC[C@H]1O[C@H](O[C@H]2[C@H](O)[C@@H](O[C@H]3O[C@H](CO)[C@@H](O)[C@H](N)[C@H]3O)[C@H](N)C[C@@H]2N)[C@H](O)[C@@H](O)[C@@H]1O; conditions: 300 μM acetyl-CoA, 50 mM MES pH 6.5, 200 μM DTNB, 25 °C

AAC(2′)-Id (Mycolicibacterium smegmatis MC2 155)
kcat [1]: 0.34 ± 0.03 s⁻¹ | kcat/Km [1]: 5670 ± 1620 M⁻¹ s⁻¹ | Km [2]: (1.04 ± 0.14) × 10^2 μM | kcat [2]: 1.08 ± 0.06 s⁻¹ | kcat/Km [2]: 10400 ± 2100 M⁻¹ s⁻¹ | Km [3]: (1.86 ± 0.10) × 10^2 μM | kcat [3]: 3.34 ± 0.1 s⁻¹ | kcat/Km [3]: 18000 ± 1600 M⁻¹ s⁻¹ | Km [4]: (1.67 ± 0.84) × 10^2 μM | kcat [4]: 0.13 ± 0.03 s⁻¹ | kcat/Km [4]: 817 ± 620 M⁻¹ s⁻¹
